The values below come from publication PMC2787013, “DNA Specificity Determinants Associate with Distinct Transcription Factor Functions”.

Holding throughout (assay): EMSA; Protein 3-fold dilutions with 1e-11 (M) 32P-dsDNA, 30 min on ice, 6% polyacrylamide gel; binding buffer as in earlier paper (not given); protein dialysis buffer 10 mM Tris pH 7.9, 0.5 mM EDTA, 50 mM KCl, 1 mM DTT, 10% glycerol
Common to all, as to conditions: protein: recombinant; tags: N-terminal 6xHis (pET28a); label: 32P; (only one strand given)

For data set [1], the target named is T1, ELF1 (human, UniProt P32519 1-619).
Data set [2] deals with T2, ETS1 (p51) (human, UniProt P14921 1-441).
T2 sequence: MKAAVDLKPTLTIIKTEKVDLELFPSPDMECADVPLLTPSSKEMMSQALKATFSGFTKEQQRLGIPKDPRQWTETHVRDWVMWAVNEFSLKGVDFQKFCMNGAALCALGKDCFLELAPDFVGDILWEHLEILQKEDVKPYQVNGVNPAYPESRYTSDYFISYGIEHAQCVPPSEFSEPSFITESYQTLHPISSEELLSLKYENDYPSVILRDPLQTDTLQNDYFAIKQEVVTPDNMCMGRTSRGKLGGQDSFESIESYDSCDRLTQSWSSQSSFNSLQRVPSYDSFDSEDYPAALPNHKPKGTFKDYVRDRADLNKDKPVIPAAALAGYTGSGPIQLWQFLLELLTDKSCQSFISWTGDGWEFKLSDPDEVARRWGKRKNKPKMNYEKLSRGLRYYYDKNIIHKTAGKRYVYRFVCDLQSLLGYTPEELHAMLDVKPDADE

The target in data set [3] is T1, ELF1. This is another data set of the same source.
The target in data set [4] is T2, ETS1 (p51). This is another data set of the same source.

Residue numbers refer to the chain shown, from its start.

T1 sequence (P32519 whole entry): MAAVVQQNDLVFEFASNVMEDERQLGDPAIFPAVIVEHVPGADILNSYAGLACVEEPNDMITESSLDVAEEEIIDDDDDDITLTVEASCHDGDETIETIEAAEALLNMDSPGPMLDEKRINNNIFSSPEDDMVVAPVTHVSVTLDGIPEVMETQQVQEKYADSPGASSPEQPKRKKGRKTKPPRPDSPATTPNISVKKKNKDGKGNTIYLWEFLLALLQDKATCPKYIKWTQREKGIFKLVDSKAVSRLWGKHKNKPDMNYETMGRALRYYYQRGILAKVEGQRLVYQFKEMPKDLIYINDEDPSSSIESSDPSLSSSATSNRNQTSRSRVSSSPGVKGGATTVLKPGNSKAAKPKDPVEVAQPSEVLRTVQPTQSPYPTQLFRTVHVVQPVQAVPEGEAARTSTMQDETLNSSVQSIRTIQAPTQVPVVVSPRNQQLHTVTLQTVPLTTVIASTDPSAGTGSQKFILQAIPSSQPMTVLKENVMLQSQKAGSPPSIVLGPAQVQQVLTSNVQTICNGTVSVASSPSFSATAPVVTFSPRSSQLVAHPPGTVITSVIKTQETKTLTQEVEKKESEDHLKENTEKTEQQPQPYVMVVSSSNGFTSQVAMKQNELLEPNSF

B1: ETS consensus CCGGAAGT (dsDNA)
DNA 1: GGCCAAGCCGGAAGTGTGTGGTAAACACTTT
DNA 2: AAAGTGTTTACCACACACTTCCGGCTTGGCC
Consider B1, for which the Kd in data set [1] was found to be 0.17 nM; in data set [2], 1.7 nM.

B2: double variant CAGGATGT (dsDNA)
DNA 1: B1 DNA 1 with C9A, A13T
DNA 2: B1 DNA 2 with T19A, G23T
Turning to B2, the figures for the binding signal in data set [3] and in data set [4] were 18.3 fold decrease in affinity vs N1 and 2.4 fold decrease in affinity vs N1, respectively.

B3: C to A variant CAGGAAGT (dsDNA)
DNA 1: B1 DNA 1 with C9A
DNA 2: B1 DNA 2 with G23T
For the molecule B3, the binding signal in data set [3] is 1.9 fold decrease in affinity vs N1; in data set [4], 1.5 fold decrease in affinity vs N1.

B4: A to T variant CCGGATGT (dsDNA)
DNA 1: B1 DNA 1 with A13T
DNA 2: B1 DNA 2 with T19A
Take B4: the binding signal in data set [3] is 3.6 fold decrease in affinity vs N1; in data set [4] it was 1 fold decrease in affinity vs N1.
